Settings: Escherichia coli (strain K12), whole UniProt chain shown

B1: Divalent-cation tolerance protein CutA wild type, P69488 (protein)
chain: MLDEKSSNTASVVVLCTAPDEATAQDLAAKVLAEKLAACATLIPGATSLYYWEGKLEQEYEVQMILKTTVSHQQALLECLKSHHPYQTPELLVLPVTHGDTDYLSWLNASLR
denaturant midpoint (higher = more stable) (pH 8, 37 °C, GdnHCl, CD, Tris-HCl, reversible: yes): 2.72 M
Tm (pH 9, Thermal, DSC, glycine Buffer, transition: 2, reversible: no): 89.9 °C

— FireProtDB (doi:10.1093/jb/mvq079)
